Experimental findings from the supplement of paper PMC9112550, “Optimization of the antimicrobial peptide Bac7 by deep mutational scanning” (BMC Biology, 2022) are described below.

This series concerns Escherichia coli TOP10. The series can be described thus: shrunken log2 fold change of peptide-encoding DNA abundance (4.5 h post-induction vs induction); higher = less antimicrobial activity (less host growth inhibition). Particulars: time post-induction: 4.5 h; library: site-saturation at positions 5, 18, 19, 20.
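Further: peptides expressed intracellularly from a pBAD plasmid library in pooled LB shake-flask culture, induced with 0.3% L-arabinose, DNA abundance read by NGS, three biological replicates, DESeq2 with apeglm shrinkage.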

As to RRIRNRPPRLPRPRPRPYSGPRP, the “shrunken log2 fold change” value worked out at 0.00884.

RRIRHRPPRLPRPRPRPMFLPRP: the “shrunken log2 fold change” value was -0.797. In the case of RRIRHRPPRLPRPRPRPFFAPRP, the “shrunken log2 fold change” value came out at 0.0898. RRIRHRPPRLPRPRPRPLYCPRP: the “shrunken log2 fold change” value was -0.327. With RRIRPRPPRLPRPRPRPLMFPRP, the “shrunken log2 fold change” value is -0.138. Take RRIRFRPPRLPRPRPRPQSPPRP: the “shrunken log2 fold change” value was -0.13.

On to RRIRMRPPRLPRPRPRPFNWPRP, for which the “shrunken log2 fold change” value is -0.0926. Consider RRIRGRPPRLPRPRPRPVNYPRP, for which the “shrunken log2 fold change” value turned out to be 0.203.

For the sequence RRIRYRPPRLPRPRPRPFDTPRP, the “shrunken log2 fold change” value is -1.81. On to RRIRFRPPRLPRPRPRPYQKPRP, for which the “shrunken log2 fold change” value was -1.08. RRIRMRPPRLPRPRPRPHPKPRP: the “shrunken log2 fold change” value is 0.0698. On to RRIRKRPPRLPRPRPRPAEPPRP, for which the “shrunken log2 fold change” value was 0.429.

With RRIRIRPPRLPRPRPRPRLVPRP, the “shrunken log2 fold change” value came to 0.22. As to RRIRLRPPRLPRPRPRPYGAPRP, the “shrunken log2 fold change” value is -0.0327. In the case of RRIRPRPPRLPRPRPRPQTHPRP, the “shrunken log2 fold change” value was -0.272.

Regarding RRIRERPPRLPRPRPRPGMGPRP, the “shrunken log2 fold change” value is -0.0461. With RRIRSRPPRLPRPRPRPTIEPRP, the “shrunken log2 fold change” value was -0.0439.

With RRIRWRPPRLPRPRPRPFEHPRP, the “shrunken log2 fold change” value was -0.113. With RRIRFRPPRLPRPRPRPPGSPRP, the “shrunken log2 fold change” value was determined as 0.238. RRIRMRPPRLPRPRPRPPWDPRP: the “shrunken log2 fold change” value was 0.931. To RRIRERPPRLPRPRPRPQSNPRP belongs -0.172.

RRIRVRPPRLPRPRPRPQPLPRP: the “shrunken log2 fold change” value is -0.109. For RRIRSRPPRLPRPRPRPHYDPRP, the “shrunken log2 fold change” value was -0.735.

As for RRIRSRPPRLPRPRPRPEYMPRP, the “shrunken log2 fold change” value is -0.609. RRIRQRPPRLPRPRPRPVLDPRP: the “shrunken log2 fold change” value came to 0.0663. As for RRIRHRPPRLPRPRPRPCMMPRP, the “shrunken log2 fold change” value was -0.0344. With RRIRQRPPRLPRPRPRPRLLPRP, the “shrunken log2 fold change” value was determined as 0.0504. Turning to RRIRLRPPRLPRPRPRPFFEPRP, the “shrunken log2 fold change” value is 0.058.

On to RRIRMRPPRLPRPRPRPGHVPRP, for which the “shrunken log2 fold change” value turned out to be 0.329. With RRIRQRPPRLPRPRPRPKNEPRP, the “shrunken log2 fold change” value is -0.136. For RRIRYRPPRLPRPRPRPYKFPRP, the “shrunken log2 fold change” value is -0.0196. As for RRIRDRPPRLPRPRPRPTNTPRP, the “shrunken log2 fold change” value is -0.142. Take RRIRNRPPRLPRPRPRPGRYPRP: the “shrunken log2 fold change” value amounted to 0.00112. In the case of RRIRHRPPRLPRPRPRPNSHPRP, the “shrunken log2 fold change” value is -1.09.

For the sequence RRIRWRPPRLPRPRPRPQSYPRP, the “shrunken log2 fold change” value was -0.0988. To RRIRVRPPRLPRPRPRPTTKPRP belongs -0.162.

Regarding RRIRNRPPRLPRPRPRPRKLPRP, the “shrunken log2 fold change” value is -0.0702.

Consider RRIRKRPPRLPRPRPRPAQAPRP, for which the “shrunken log2 fold change” value stood at 0.281. With RRIRLRPPRLPRPRPRPQIRPRP, the “shrunken log2 fold change” value is -0.0176. With RRIRVRPPRLPRPRPRPNYKPRP the figure was -0.509; with RRIRYRPPRLPRPRPRPWIMPRP, -0.253. As to RRIRCRPPRLPRPRPRPPNSPRP, the “shrunken log2 fold change” value was determined as 0.0267. Regarding RRIRCRPPRLPRPRPRPAEEPRP, the “shrunken log2 fold change” value is -0.314. For RRIRERPPRLPRPRPRPQMHPRP, the “shrunken log2 fold change” value is -0.634.

RRIRNRPPRLPRPRPRPYGIPRP: the “shrunken log2 fold change” value was -0.00992.

Turning to RRIRVRPPRLPRPRPRPKHMPRP, the “shrunken log2 fold change” value is -0.518.

Consider RRIRHRPPRLPRPRPRPASYPRP, for which the “shrunken log2 fold change” value is -0.103. To RRIRARPPRLPRPRPRPAKWPRP belongs 0.273. Consider RRIRMRPPRLPRPRPRPQNSPRP, for which the “shrunken log2 fold change” value is -0.0933.

Consider RRIRQRPPRLPRPRPRPFYGPRP, for which the “shrunken log2 fold change” value was -0.00903.

Regarding RRIRWRPPRLPRPRPRPAHMPRP, the “shrunken log2 fold change” value is 0.0152. RRIRRRPPRLPRPRPRPYYVPRP: the “shrunken log2 fold change” value is -0.427. For the sequence RRIRYRPPRLPRPRPRPRKWPRP, the “shrunken log2 fold change” value turned out to be 0.149.

With RRIRSRPPRLPRPRPRPAEIPRP, the “shrunken log2 fold change” value is -0.136. Turning to RRIRGRPPRLPRPRPRPVPPPRP, the “shrunken log2 fold change” value came to 1.17. Turning to RRIRTRPPRLPRPRPRPYHQPRP, the “shrunken log2 fold change” value is -0.182.

On to RRIRFRPPRLPRPRPRPTYNPRP, for which the “shrunken log2 fold change” value is -0.767. For the sequence RRIRIRPPRLPRPRPRPGQAPRP, the “shrunken log2 fold change” value is -0.0154. As to RRIRLRPPRLPRPRPRPRHGPRP, the “shrunken log2 fold change” value was 0.414.

As to RRIRQRPPRLPRPRPRPTCVPRP, the “shrunken log2 fold change” value was -0.442. Regarding RRIRWRPPRLPRPRPRPEAWPRP, the “shrunken log2 fold change” value came out at 1.02. For RRIRIRPPRLPRPRPRPKLEPRP, the “shrunken log2 fold change” value was -0.136. As for RRIRVRPPRLPRPRPRPHDHPRP, the “shrunken log2 fold change” value was -0.244. Regarding RRIRHRPPRLPRPRPRPAGCPRP, the “shrunken log2 fold change” value turned out to be 0.242. Regarding RRIRTRPPRLPRPRPRPVDMPRP, the “shrunken log2 fold change” value is -0.238. As for RRIRRRPPRLPRPRPRPSHWPRP, the “shrunken log2 fold change” value was found to be 0.183. RRIRSRPPRLPRPRPRPENGPRP: the “shrunken log2 fold change” value stood at 0.0751. With RRIRDRPPRLPRPRPRPKVKPRP the figure was -0.337; with RRIRWRPPRLPRPRPRPETFPRP, 0.0493. For the sequence RRIRLRPPRLPRPRPRPHNVPRP, the “shrunken log2 fold change” value turned out to be 0.0245. For RRIRCRPPRLPRPRPRPEDNPRP, the “shrunken log2 fold change” value came to 0.11. With RRIRCRPPRLPRPRPRPYIAPRP the figure was -0.762; with RRIRVRPPRLPRPRPRPCVEPRP, 0.0543. As to RRIRYRPPRLPRPRPRPCCPPRP, the “shrunken log2 fold change” value is -0.38.

As to RRIRCRPPRLPRPRPRPMFCPRP, the “shrunken log2 fold change” value was -0.237. RRIRIRPPRLPRPRPRPVFLPRP: the “shrunken log2 fold change” value is -0.51. With RRIRYRPPRLPRPRPRPNDMPRP, the “shrunken log2 fold change” value was -1.16. RRIRLRPPRLPRPRPRPQSAPRP: the “shrunken log2 fold change” value was -0.372. For RRIRMRPPRLPRPRPRPPSFPRP, the “shrunken log2 fold change” value was -0.0206. As to RRIRKRPPRLPRPRPRPFTGPRP, the “shrunken log2 fold change” value is 0.0735.

Turning to RRIRWRPPRLPRPRPRPFECPRP, the “shrunken log2 fold change” value is -0.01.

Turning to RRIRDRPPRLPRPRPRPHYRPRP, the “shrunken log2 fold change” value is -0.562.

Consider RRIRSRPPRLPRPRPRPGTSPRP, for which the “shrunken log2 fold change” value is -0.167.

Take RRIRMRPPRLPRPRPRPHQNPRP: the “shrunken log2 fold change” value is 0.114. To RRIRQRPPRLPRPRPRPSKNPRP belongs 0.0658; to RRIRWRPPRLPRPRPRPCWPPRP, 0.427. As for RRIRNRPPRLPRPRPRPDEDPRP, the “shrunken log2 fold change” value is 0.421. In the case of RRIRVRPPRLPRPRPRPVGDPRP, the “shrunken log2 fold change” value was 0.294. As to RRIRQRPPRLPRPRPRPDIVPRP, the “shrunken log2 fold change” value is -0.0164.

Take RRIRERPPRLPRPRPRPRIWPRP: the “shrunken log2 fold change” value came to 0.143. For RRIRWRPPRLPRPRPRPYWYPRP, the “shrunken log2 fold change” value is -1.33.

As to RRIRYRPPRLPRPRPRPGDQPRP, the “shrunken log2 fold change” value turned out to be 0.0121. RRIRLRPPRLPRPRPRPHKYPRP: the “shrunken log2 fold change” value is -0.559. With RRIRPRPPRLPRPRPRPPQRPRP the figure was 0.43; with RRIRHRPPRLPRPRPRPWHCPRP, 0.162. To RRIRMRPPRLPRPRPRPVRAPRP belongs 1.08. RRIRVRPPRLPRPRPRPSVMPRP: the “shrunken log2 fold change” value is -0.15. With RRIRMRPPRLPRPRPRPCGRPRP the figure was 1.09; with RRIRIRPPRLPRPRPRPKSQPRP, -0.0352; with RRIRCRPPRLPRPRPRPPIGPRP, -0.079. For RRIRSRPPRLPRPRPRPPWEPRP, the “shrunken log2 fold change” value was 0.198. To RRIRQRPPRLPRPRPRPGCPPRP belongs 0.414; to RRIRRRPPRLPRPRPRPQRDPRP, 0.179. With RRIRCRPPRLPRPRPRPEIVPRP the figure was -0.221; with RRIRNRPPRLPRPRPRPWCAPRP, -0.0696; with RRIRDRPPRLPRPRPRPIAHPRP, 0.41. Take RRIRHRPPRLPRPRPRPPNSPRP: the “shrunken log2 fold change” value is -0.201. As for RRIRKRPPRLPRPRPRPQRVPRP, the “shrunken log2 fold change” value was determined as 0.146. Take RRIRGRPPRLPRPRPRPTRNPRP: the “shrunken log2 fold change” value came to 1.61. For RRIRLRPPRLPRPRPRPSEMPRP, the “shrunken log2 fold change” value was -0.0614. As for RRIRMRPPRLPRPRPRPSNGPRP, the “shrunken log2 fold change” value is -0.0373. As to RRIRTRPPRLPRPRPRPKESPRP, the “shrunken log2 fold change” value was 0.0841. For RRIRMRPPRLPRPRPRPSVSPRP, the “shrunken log2 fold change” value was -0.35. RRIRARPPRLPRPRPRPRQWPRP: the “shrunken log2 fold change” value is 0.68. To RRIRTRPPRLPRPRPRPKYLPRP belongs -0.0222; to RRIRIRPPRLPRPRPRPWWNPRP, -0.0623. Turning to RRIRLRPPRLPRPRPRPAEYPRP, the “shrunken log2 fold change” value is -0.0275. RRIRKRPPRLPRPRPRPMYPPRP: the “shrunken log2 fold change” value came to 0.00349. As for RRIRRRPPRLPRPRPRPYGTPRP, the “shrunken log2 fold change” value was -0.231.

On to RRIRMRPPRLPRPRPRPMTHPRP, for which the “shrunken log2 fold change” value is 0.173. With RRIRPRPPRLPRPRPRPYRDPRP the figure was 0.0239; with RRIRYRPPRLPRPRPRPFLTPRP, -0.871. Consider RRIRWRPPRLPRPRPRPGHPPRP, for which the “shrunken log2 fold change” value worked out at 0.0932. To RRIRIRPPRLPRPRPRPQVCPRP belongs 0.0108; to RRIRFRPPRLPRPRPRPFMIPRP, -0.456.
